The supplement of paper PMC10567573

B1: STEAP1 (parent)
chain: LWKMKPRRNLEEDDYLHKDTGETS

Variants of: B1
Test: protein stability index of a GFP-peptide fusion (GPS, HEK-293T) (PSI 1-6); higher = more stable
Conditions: c terminus: a fixed tail appended
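Further: lentivirally expressed fusions sorted by FACS into six bins by GFP to DsRed ratio, PSI derived from sequencing read proportions per bin multiplied by bin number.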

Point of comparison: LWKMKPRRPLEEDDYLHKDTGETS, protein stability index 4.11. Against it:
- LWKMEPRRNLEEDDYLHKDTGETS — higher, 4.74
- LWKMAPRRNLEEDDYLHKDTGETS — lower, 3.93
- LWKMWPRRNLEEDDYLHKDTGETS — lower, 2.86
- LWKMNPRRNLEEDDYLHKDTGETS — higher, 4.32
- LWKMQPRRNLEEDDYLHKDTGETS — higher, 4.86
- LWKMCPRRNLEEDDYLHKDTGETS — higher, 4.45
- LWKMIPRRNLEEDDYLHKDTGETS — lower, 3.36
- LWKMLPRRNLEEDDYLHKDTGETS — lower, 3.98
- LWKMPPRRNLEEDDYLHKDTGETS — higher, 4.91
- LWKMFPRRNLEEDDYLHKDTGETS — lower, 2.77
- LWKMHPRRNLEEDDYLHKDTGETS — higher, 4.4
- LWKMYPRRNLEEDDYLHKDTGETS — lower, 3.9
- LWKMRPRRNLEEDDYLHKDTGETS — the same, 4.11
- LWKMVPRRNLEEDDYLHKDTGETS — lower, 3.94
- LWKMTPRRNLEEDDYLHKDTGETS — higher, 4.56
- LWKMDPRRNLEEDDYLHKDTGETS — higher, 4.8
- LWKMSPRRNLEEDDYLHKDTGETS — higher, 5.01
- LWKMGPRRNLEEDDYLHKDTGETS — higher, 4.5
- LWKMMPRRNLEEDDYLHKDTGETS — lower, 4
- LWKMKPRRKLEEDDYLHKDTGETS — higher, 4.44
- LWKMKPRRYLEEDDYLHKDTGETS — lower, 4.07
- LWKMKPRRCLEEDDYLHKDTGETS — lower, 3.81
- LWKMKPRRVLEEDDYLHKDTGETS — higher, 4.18
- LWKMKPRRWLEEDDYLHKDTGETS — lower, 3.08
- LWKMKPRRMLEEDDYLHKDTGETS — higher, 4.36
- LWKMKPRRGLEEDDYLHKDTGETS — higher, 4.58
- LWKMKPRRHLEEDDYLHKDTGETS — higher, 4.47
- LWKMKPRRELEEDDYLHKDTGETS — higher, 4.49
- LWKMKPRRQLEEDDYLHKDTGETS — higher, 4.41
- LWKMKPRRILEEDDYLHKDTGETS — higher, 4.15
- LWKMKPRRDLEEDDYLHKDTGETS — higher, 4.53
- LWKMKPRRALEEDDYLHKDTGETS — higher, 4.41
- LWKMKPRRTLEEDDYLHKDTGETS — higher, 4.49
- LWKMKPRRFLEEDDYLHKDTGETS — lower, 4.06
- LWKMKPRRSLEEDDYLHKDTGETS — higher, 4.56
- LWKMKPRRLLEEDDYLHKDTGETS — higher, 4.15
- LWKMKPRRRLEEDDYLHKDTGETS — higher, 4.23
- LWSMKPRRNLEEDDYLHKDTGETS — higher, 4.51
- LWGMKPRRNLEEDDYLHKDTGETS — higher, 4.22
- LWTMKPRRNLEEDDYLHKDTGETS — higher, 4.36
- LWIMKPRRNLEEDDYLHKDTGETS — lower, 2.86
- LWVMKPRRNLEEDDYLHKDTGETS — lower, 3.67
- LWWMKPRRNLEEDDYLHKDTGETS — lower, 3.27
- LWRMKPRRNLEEDDYLHKDTGETS — higher, 4.28
- LWCMKPRRNLEEDDYLHKDTGETS — lower, 3.49
- LWHMKPRRNLEEDDYLHKDTGETS — higher, 4.54
- LWEMKPRRNLEEDDYLHKDTGETS — higher, 5.19
- LWPMKPRRNLEEDDYLHKDTGETS — higher, 4.72
- LWFMKPRRNLEEDDYLHKDTGETS — lower, 3.31
- LWNMKPRRNLEEDDYLHKDTGETS — higher, 4.8
- LWYMKPRRNLEEDDYLHKDTGETS — lower, 3.81
- LWMMKPRRNLEEDDYLHKDTGETS — the same, 4.11
- LWLMKPRRNLEEDDYLHKDTGETS — lower, 3.81
- LWQMKPRRNLEEDDYLHKDTGETS — higher, 4.88
- LWDMKPRRNLEEDDYLHKDTGETS — higher, 5.06
- LWAMKPRRNLEEDDYLHKDTGETS — higher, 4.19
- LWKMKKRRNLEEDDYLHKDTGETS — lower, 4.1
- LWKMKHRRNLEEDDYLHKDTGETS — lower, 4
- LWKMKARRNLEEDDYLHKDTGETS — lower, 3.94
- LWKMKGRRNLEEDDYLHKDTGETS — higher, 4.42
- LWKMKDRRNLEEDDYLHKDTGETS — higher, 4.41
- LWKMKVRRNLEEDDYLHKDTGETS — lower, 3.96
- LWKMKSRRNLEEDDYLHKDTGETS — higher, 4.57
- LWKMKCRRNLEEDDYLHKDTGETS — lower, 3.52
- LWKMKRRRNLEEDDYLHKDTGETS — lower, 3.65
- LWKMKQRRNLEEDDYLHKDTGETS — lower, 3.94
- LWKMKERRNLEEDDYLHKDTGETS — higher, 5.13
- LWKMKFRRNLEEDDYLHKDTGETS — lower, 3.62
- LWKMKMRRNLEEDDYLHKDTGETS — lower, 3.77
- LWKMKIRRNLEEDDYLHKDTGETS — lower, 3.94
- LWKMKLRRNLEEDDYLHKDTGETS — lower, 3.86
- LWKMKWRRNLEEDDYLHKDTGETS — lower, 3.16
- LWKMKYRRNLEEDDYLHKDTGETS — lower, 3.96
- LWKMKNRRNLEEDDYLHKDTGETS — higher, 4.52
- LWKMKTRRNLEEDDYLHKDTGETS — higher, 4.47
- LWKMKPRGNLEEDDYLHKDTGETS — lower, 4.07
- LWKMKPRVNLEEDDYLHKDTGETS — lower, 4.08
- LWKMKPRKNLEEDDYLHKDTGETS — higher, 4.49
- LWKMKPRCNLEEDDYLHKDTGETS — lower, 3.79
- LWKMKPRPNLEEDDYLHKDTGETS — higher, 4.61
- LWKMKPRTNLEEDDYLHKDTGETS — higher, 4.47
- LWKMKPRANLEEDDYLHKDTGETS — higher, 4.61
- LWKMKPRWNLEEDDYLHKDTGETS — lower, 3.82
- LWKMKPRFNLEEDDYLHKDTGETS — lower, 3.93
- LWKMKPRYNLEEDDYLHKDTGETS — lower, 4.04
- LWKMKPRHNLEEDDYLHKDTGETS — lower, 4.1
- LWKMKPRMNLEEDDYLHKDTGETS — higher, 4.6
- LWKMKPRDNLEEDDYLHKDTGETS — higher, 4.74
- LWKMKPRNNLEEDDYLHKDTGETS — higher, 4.53
- LWKMKPRENLEEDDYLHKDTGETS — higher, 4.83
- LWKMKPRINLEEDDYLHKDTGETS — higher, 4.22
- LWKMKPRLNLEEDDYLHKDTGETS — lower, 4.03
- LWKMKPRQNLEEDDYLHKDTGETS — higher, 4.67
- LWKMKPRSNLEEDDYLHKDTGETS — higher, 4.43
- VWKMKPRRNLEEDDYLHKDTGETS — higher, 4.69
- YWKMKPRRNLEEDDYLHKDTGETS — higher, 4.26
- TWKMKPRRNLEEDDYLHKDTGETS — higher, 5
- QWKMKPRRNLEEDDYLHKDTGETS — higher, 5.18
- WWKMKPRRNLEEDDYLHKDTGETS — higher, 4.18
- PWKMKPRRNLEEDDYLHKDTGETS — higher, 5.08
- RWKMKPRRNLEEDDYLHKDTGETS — higher, 4.8
- SWKMKPRRNLEEDDYLHKDTGETS — higher, 4.78
- LWKMKPRRNLCEDDYLHKDTGETS — lower, 3.79
- LWKMKPRRNLGEDDYLHKDTGETS — lower, 3.93
- LWKMKPRRNLIEDDYLHKDTGETS — lower, 3.82
- LWKMKPRRNLFEDDYLHKDTGETS — lower, 3.61
- LWKMKPRRNLHEDDYLHKDTGETS — higher, 4.26
- LWKMKPRRNLDEDDYLHKDTGETS — lower, 4
- LWKMKPRRNLAEDDYLHKDTGETS — lower, 3.89
- LWKMKPRRNLKEDDYLHKDTGETS — higher, 4.58
- LWKMKPRRNLLEDDYLHKDTGETS — lower, 3.88
- LNKMKPRRNLEEDDYLHKDTGETS — higher, 4.82
- LDKMKPRRNLEEDDYLHKDTGETS — higher, 5.62
- LEKMKPRRNLEEDDYLHKDTGETS — higher, 5.45
- LYKMKPRRNLEEDDYLHKDTGETS — higher, 4.92
- LRKMKPRRNLEEDDYLHKDTGETS — higher, 4.83
- LPKMKPRRNLEEDDYLHKDTGETS — higher, 5.49
- LSKMKPRRNLEEDDYLHKDTGETS — higher, 5.48
- LIKMKPRRNLEEDDYLHKDTGETS — higher, 5.05
- LLKMKPRRNLEEDDYLHKDTGETS — higher, 5
- LGKMKPRRNLEEDDYLHKDTGETS — higher, 4.96
- LMKMKPRRNLEEDDYLHKDTGETS — higher, 4.78
- LVKMKPRRNLEEDDYLHKDTGETS — higher, 4.99
- LCKMKPRRNLEEDDYLHKDTGETS — higher, 5.08
- LAKMKPRRNLEEDDYLHKDTGETS — higher, 5.25
- LFKMKPRRNLEEDDYLHKDTGETS — higher, 4.55
- LKKMKPRRNLEEDDYLHKDTGETS — higher, 4.78
- LQKMKPRRNLEEDDYLHKDTGETS — higher, 5.31
- LTKMKPRRNLEEDDYLHKDTGETS — higher, 5.22
- LHKMKPRRNLEEDDYLHKDTGETS — higher, 4.96
- LWKMKPTRNLEEDDYLHKDTGETS — higher, 4.85
- LWKMKPSRNLEEDDYLHKDTGETS — higher, 4.58
- LWKMKPCRNLEEDDYLHKDTGETS — higher, 4.26
- LWKMKPFRNLEEDDYLHKDTGETS — lower, 3.55
- LWKMKPNRNLEEDDYLHKDTGETS — higher, 4.71
- LWKMKPVRNLEEDDYLHKDTGETS — higher, 4.14
- LWKMKPQRNLEEDDYLHKDTGETS — higher, 4.62
- LWKMKPKRNLEEDDYLHKDTGETS — higher, 4.69
- LWKMKPPRNLEEDDYLHKDTGETS — higher, 4.62
- LWKMKPMRNLEEDDYLHKDTGETS — higher, 4.51
- LWKMKPERNLEEDDYLHKDTGETS — higher, 4.47
- LWKMKPDRNLEEDDYLHKDTGETS — higher, 5.25
- LWKMKPLRNLEEDDYLHKDTGETS — higher, 4.4
- LWKMKPWRNLEEDDYLHKDTGETS — lower, 4.07
- LWKMKPHRNLEEDDYLHKDTGETS — higher, 4.69
- LWKMKPIRNLEEDDYLHKDTGETS — higher, 4.26
- LWKMKPGRNLEEDDYLHKDTGETS — higher, 4.42
- LWKMKPYRNLEEDDYLHKDTGETS — lower, 3.94
- LWKMKPARNLEEDDYLHKDTGETS — higher, 4.83
- LWKQKPRRNLEEDDYLHKDTGETS — higher, 4.95
- LWKRKPRRNLEEDDYLHKDTGETS — higher, 4.47
- LWKEKPRRNLEEDDYLHKDTGETS — higher, 4.94
- LWKDKPRRNLEEDDYLHKDTGETS — higher, 5.16
- LWKFKPRRNLEEDDYLHKDTGETS — lower, 3.99
- LWKHKPRRNLEEDDYLHKDTGETS — higher, 4.81
- LWKWKPRRNLEEDDYLHKDTGETS — higher, 4.14
- LWKSKPRRNLEEDDYLHKDTGETS — higher, 4.69
- LWKNKPRRNLEEDDYLHKDTGETS — higher, 4.69
- LWKVKPRRNLEEDDYLHKDTGETS — higher, 4.41
- LWKAKPRRNLEEDDYLHKDTGETS — higher, 4.43
- LWKCKPRRNLEEDDYLHKDTGETS — higher, 4.27
- LWKPKPRRNLEEDDYLHKDTGETS — higher, 4.41
- LWKGKPRRNLEEDDYLHKDTGETS — higher, 4.86
- LWKKKPRRNLEEDDYLHKDTGETS — higher, 4.19
- LWKYKPRRNLEEDDYLHKDTGETS — higher, 4.41
- LWKLKPRRNLEEDDYLHKDTGETS — higher, 4.55
- LWKTKPRRNLEEDDYLHKDTGETS — higher, 4.62
- LWKIKPRRNLEEDDYLHKDTGETS — higher, 4.36
- LWKMKPRRNSEEDDYLHKDTGETS — higher, 5.12
- LWKMKPRRNYEEDDYLHKDTGETS — lower, 4.1
- LWKMKPRRNPEEDDYLHKDTGETS — higher, 4.86
- LWKMKPRRNKEEDDYLHKDTGETS — higher, 4.48
- LWKMKPRRNDEEDDYLHKDTGETS — higher, 4.9
- LWKMKPRRNMEEDDYLHKDTGETS — higher, 4.26
- LWKMKPRRNNEEDDYLHKDTGETS — higher, 4.4
- LWKMKPRRNHEEDDYLHKDTGETS — higher, 4.22
- LWKMKPRRNEEEDDYLHKDTGETS — higher, 4.89
- LWKMKPRRNQEEDDYLHKDTGETS — higher, 4.72
- LWKMKPRRNGEEDDYLHKDTGETS — lower, 4.02
- LWKMKPRRNWEEDDYLHKDTGETS — higher, 4.41
- LWKMKPRRNIEEDDYLHKDTGETS — higher, 4.67
- LWKMKPRRNFEEDDYLHKDTGETS — higher, 4.24
- LWKMKPRRNREEDDYLHKDTGETS — higher, 4.24
- LWKMKPRRNCEEDDYLHKDTGETS — lower, 3.9
- LWKMKPRRNTEEDDYLHKDTGETS — higher, 4.69
- LWKMKPRRNVEEDDYLHKDTGETS — higher, 4.34
- LWKMKPRRNAEEDDYLHKDTGETS — higher, 4.86
